Patent US20040063632A1 (Bayer, published 2004)

B1: scFV(TF)3e10 (dimer) (scFv)
scFv: EMAQVNLRESGGTLVQPGGSLRLSCAASGFSFTDAWMSWVRQAPGKELEWVSSISGSGGSTYYAGSVKGRFTISRDNSKNTLYLQMNSLRAEDTAVYYCARVLSLTDYYWYGMDVWGQGTLVTVSAGGGGSGAPNFMLTQPHSVSASPGKTVTISCTRSSGSVASYYVQWYQQRPGSSPTTVIYEDNHRPSGVPDRFSGSIDTSSNSASLTISGLKTEDEADYYCQSYDSNNLVVFGGGTKLTVLGAAAGAPVPYPDPLEPRAA
B2: scFv(TF)3e10-TMi456 fusion protein (other)
chain: EMAQVNLRESGGTLVQPGGSLRLSCAASGFSFTDAWMSWVRQAPGKELEWVSSISGSGGSTYYAGSVKGRFTISRDNSKNTLYLQMNSLRAEDTAVYYCARVLSLTDYYWYGMDVWGQGTLVTVSAGGGGSGAPNFMLTQPHSVSASPGKTVTISCTRSSGSVASYYVQWYQQRPGSSPTTVIYEDNHRPSGVPDRFSGSIDTSSNSASLTISGLKTEDEADYYCQSYDSNNLVVFGGGTKLTVLGAAAGGGGSGGGGSGGGGSVEPVDPCFRANCEYQCQPLNQTSYLCVCAEGFAPIPHEPHRCQMFCNQTACPADCDPNTQASCECPEGYILDDGFICTDIDECENGGFCSGVCHNLPGTFECICGPDSALAGQIGTDCAAAGAPVPYPDPLEPRAA
B3: recombinant human soluble tissue factor (receptor, UniProt P13726 33-251, looked up)
chain: SGTTNTVAAYNLTWKSTNFKTILEWEPKPVNQVYTVQISTKSGDWKSKCFYTTDTECDLTDEIVKDVKQTYLARVFSYPAGNVESTGSAGEPLYENSPEFTPYLETNLGQPTIQSFEQVGTKVNVTVEDERTLVRRNNTFLSLRDVFGKDLIYTLYYWKSSSSGKKTAKTNTNEFLIDVDKGENYCFSVQAVIPSRTVNRKSTDSPVECMGQEKGEFRE
notes: extracellular domain; also called sTF; soluble TF
B4: single chain anti-TF antibody scFv(TF)3e10 (scFv)
scFv: B1 scFv
notes: Human scFv from phage library HuPhaBL3

Legend:
[1] = target: full length TF in phospholipid vesicles (human, UniProt P13726 33-295); assay: cell-based or functional assay
Human FVIIa = target: T1, Human FVIIa (human, UniProt P08709 61-466); assay: sTF/FVIIa activation assay: sTF titrated against 2 nM FVIIa without antibody, rate of cleavage of chromogenic substrate S-2266, apparent KD from a 4-parameter fit
T1 construct: Bought protein; also called factor VIIa
T1 sequence (looked up): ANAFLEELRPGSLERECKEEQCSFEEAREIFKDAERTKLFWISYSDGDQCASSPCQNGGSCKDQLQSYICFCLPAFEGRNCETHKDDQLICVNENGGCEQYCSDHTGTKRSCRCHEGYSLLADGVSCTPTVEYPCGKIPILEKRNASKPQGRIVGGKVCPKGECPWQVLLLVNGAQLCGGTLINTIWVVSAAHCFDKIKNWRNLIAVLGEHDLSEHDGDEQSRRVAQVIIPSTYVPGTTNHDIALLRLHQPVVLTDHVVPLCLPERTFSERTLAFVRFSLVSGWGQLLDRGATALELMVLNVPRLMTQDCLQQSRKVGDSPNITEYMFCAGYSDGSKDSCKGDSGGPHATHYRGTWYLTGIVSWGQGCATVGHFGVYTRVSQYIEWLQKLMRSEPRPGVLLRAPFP

[2] = target: T2, sTF/FVIIa complex (preformed from sTF and a 2.3 fold molar excess of FVIIai) (human, UniProt P13726 33-251; P08709 61-466, limits assumed, active site inhibited (FVIIai); the way of inhibition is not stated for this batch); assay: isothermal titration calorimetry
T2 construct: Complex used in the microcalorimeter cell; complete complexing of sTF verified by size exclusion chromatography; also called sTF/VIIa complex; FVIIa/TF complex
Procedure: (§1) FIG. 3. […] Isothermal titration calorimetry was performed using a MicroCal VP-ITC instrument. […] Data analysis was done using MicroCal Origin software. The data was fit to a single binding site.

[3] = target: B3; assay: isothermal titration calorimetry (MicroCal VP-ITC), 141 µM scFv(TF)3e10 in the syringe, 10 µM sTF in the cell, OneSites model
Procedure: as §1

[4] = target: B3; assay: isothermal titration calorimetry (MicroCal VP-ITC), 10 uM sTF in the cell, 141 uM scFv in the syringe; microcalorimetry, free sTF as target
Procedure: as §1

[5] = target: T2, sTF/FVIIa complex (preformed from sTF …); assay: isothermal titration calorimetry (MicroCal VP-ITC), 1.2 uM complex in the cell, 65 uM scFv in the syringe; microcalorimetry, TF/FVIIa complex as target
Procedure: as §1

[6] = target: B3; assay: apparent KD from the sTF/FVIIa chromogenic activation assay (3 nM sTF, 2 nM FVIIa, antibody titrated, 4-parameter fit); sTF/FVIIa chromogenic assay, apparent KD
[7] = target: T2, sTF/FVIIa complex (preformed from sTF …); assay: isothermal titration calorimetry (MicroCal VP-ITC), 65 µM scFv(TF)3e10 in the syringe, 1.2 µM preformed sTF/FVIIai complex in the cell, OneSites model
Procedure: as §1

## B1
[1]
  IC50 for inhibition in the FX activation assay: 0.44 nM

## B2
[1]
  IC50 of FX activation by the FVIIa/TF complex: 0.5 nM
  TM cofactor activity (protein C activation assay on TF-rich surface): > 5 fold

## B3
Human FVIIa
  Kd: 13 nM

## B4
[2]
  fold higher affinity than for free sTF: 20 fold
[3]
  N: 0.878
  ΔH: -21.9 kcal/mol
  ΔS: -43.6
[4]
  Kd: 600 nM
[5]
  Kd: 33 nM
[6]
  Kd: 65.4 nM
[7]
  N: 1.14
  ΔH: -28.6 kcal/mol
  ΔS: -60
